Assay results as given in the DeepSol protein solubility set.

Test: soluble on expression in E. coli; label from the status in PepcDB or PDB records

| Sequence | soluble on expression in E. coli |
| --- | --- |
| MYQVIKMYGDWEPWWFIDGWQDDIIDEQQFSDWQEALDYFNQEWQRMKAIFPSYHSQKNLLATFWEKEDKRWCEDCDEDLQQFHSLLLLKNKDIVPSNNYIPEFEQRNDSPQVAYLCKLNL | not soluble |
| MYQVIKMYGDWEPWWFIDGWQDDIIDEQQFSDWQEALDYFNQEWQRMKAIFPSYHSQKNLLATFWEKEDKRWCEDCDEDLQQFHSLLLLKNKDIVPSNNYIPEFEQRNDSPQVAYLCKLNLLEHHHHHH | soluble |
| MYQVITMYGDNEPWWFFDDWQEDIVQEKTFDNLTDAETYYVEVWQKLSQNYTYVNTKPNYLTAFWNDGEERWCEECDEDLQQYFGLALLENHHAVTFENKAEFTTISNHFGKTKFCKRKVILEHHHHHH | soluble |
| MYSDSRKRSSDDLIDNSDESKKPKESRNLYCTLAAYGCRKGERADMQDTHIMLPKFDLGTEKSFLSRASFFAIFDGHAGPRAAEHCQSQMGKTVKEKLAKFSDFPTLTKSLKQTFTESYKAVDDGFLAIAKQNKPIWKDGTTATTMIILNNVIYVANIGDSRAVVARKKEDGSFAPVCLTVDHDPMSHDERMRIQKAGAVVKDGRINGVIEVSRSIGDLPFKSLGIISTPDLKKLTLTKNDL | not soluble |
| MYSYADRLRAVELYIRLGKRLNTTIRQLGYPTKNALRGWYREYVQHLDLRTQPVARAPKYSEAQRQAALEHFRTHDRCISGTMRALGYPGRGTLTAWVREAFPEARTSMVGRSWHPGYSEEVRQAGVIGLCSGDESAQQVADRLGVSRPTLYSWKDQLLGHEASSSMKRRKANPKVPEREELERKLEALQRDVRQLQLEHDLLKKANELLKKGLGVDLLILSNREKTQLIDALKEVYRLPELLAQLRIARSSYFYHRARMCLADKYAAVRLSLAEIFEANRRCYGYRRLQASLARKSVIVSEKVVQRLMKQEHLAVARPRRRRFGSYLGEISPAPENLINRDFHADAPNVKWLTDITEFQIPAGKVYLSPIIDCFDGMVISWSIGTQPDAGLVNTMLDAAIGTVANGEERPIIHSDRGAHYRWPGWLTRISEARLVRSMSRKGCSQDNAACEGFFGRLKTELFYPRDWKAITIEQFVAEVDAYIRWYNEKRIKISLGSLSPVEYRQSLGLKLAAALEHHHHHH | soluble |
| MYTLLLVDDEERMLDLLELYLAPNGYRCVKRRSGAEAIDYLRRHHADLVLLDVMMPELDGWETCRRIRSFSNVPIMMVTARDETADIVQGLKIGADDYVTKPFDEAELLARIEAVLRRTAGGRSAIRAAGLVWDEEEHTVRYEDKPIALTPKEFAILGLLLKHPNQVFSRGQIIASLWGYLADTEERTVDSHMKNIREKLRKAGFPADEYLQTVWGVGYKWEGRKS | soluble |
| MYVLIGGAGLIGQQLARQVLDQGHTVAVIDQDPQVCKMVRDRLGAMAFEGSAVNTDILLEAGICRADAVAAVLRQDALNLALVTLACHYGVSRIISRISQQDFIEPMRLAGAHHIISTVDLVVSTMVNAIECPQVESMLHFEQGQIEVFKLTLDSQSPVIGRSVAAIAQDRNFPSSSLIIGYQSHPQADLVIPSGNTVLEANATVLLATKPGLVQSLVNFLMPSLFSPLQPAGVLHQLEHHHHHH | soluble |
| NFTHVKGSVGSNSQYVGQVDSSMAFSDKVNGRINLEYRQADSYVDHVDSNDFFIAPTIRVLPADGHTIDIDVEYAHQELVPYRGVPSKNGKPVDLPVSTYFGGTNDYQESDSLRVAVDYEWRLNDQWVWNNRAAFNHIELEQKGTRQGKVTGNEVSQTVNNFGYDPRTTTTLQSELIWETNDNQLMLGADFNQIDIDLTLASDKTLPPQNIYNPVVGPTPDPGFKPFRDNTTTTTGVYVQDVYTWGDLSVIGNVRYDSMELEQQKAGSGKEKLDDDKVSYRAGLVYRINYDTSVYASLARSWQLPYAGIYINPKLAEFFHTDLKEVGAKAYLLDNALMLNAALFQIDQEQPQTNVDGDVIDKIEVRHQGIELEARGQITKQWDISVGYSYLDAEDKATGKKPNDVSDHLFSLWSTYQLDDNWRLGGGVKYVGDRYAGNDEAVALGDYTTVDLMAAYTTGRHKIQANAYNILDEKYILGATNGTSGLNQIGYGAPAEFMLSYGYQF | not soluble |
| NGFDREMRTRILGMVPQATVESYQPIDDWRALAEKVKAHEHVTAVAPFTQMQGMLSANGAVQTVMVDAVDPLEEAKVSIIPDFFKQGSLAELKAGGFGIVIGQLAAQKLGVGIGDKVTLILPEVAVTPAGVFPRMKRFTVVGTFRVGAGELDGGLSLIHLEDAARLQRWKTNQVQGLRLKLDDLFQAPRVAWEIARTLTDNDFYARDWTRSHGNLYQAIRMEKT | not soluble |
| NKGKDITSWVNKALDAIAALFSAKTWKRKPKMKVHYGNNTRQNDYDYNARKKAQSDEIDRILDKLKKSGYESLTTEEKKSLFDASKR | not soluble |
| NKYFENVSKIKYEGPKSNNPYSFKFYNPEEVIDGKTMEEHLRFSIAYWHTFTADGTDQFGKATMQRPWNHYTDPMDIAKARVEAAFEFFDKINAPYFCFHDRDIAPEGDTLRETNKNLDTIVAMIKDYLKTSKTKVLWGTANLFSNPRFVHGASTSCNADVFAYSAAQVKKALEITKELGGENYVFWGGREGYETLLNTDMEFELDNFARFLHMAVDYAKEIGFEGQFLIEPKPKEPTKHQYDFDVANVLAFLRKYDLDKYFKVNIEANHATLAFHDFQHELRYARINGVLGSIDANTGDMLLGWDTDQFPTDIRMTTLAMYEVIKMGGFDKGGLNFDAKVRRASFEPEDLFLGHIAGMDAFAKGFKVAYKLVKDRVFDKFIEERYASYKDGIGADIVSGKADFRSLEKYALERSQIVNKSGRQELLESILNQYLFAE | soluble |
| NLKVKGARDVFEYMKGRIPDETKEHLFVLFLSTKNQILRHETITIGTLTASLIHPREIFKAAIRESAHSIILVHNHPSGDVQPSNADKQVTSILKKAGDLLQIELLDHVIVGNNDWFSFRDHALL | soluble |
| NLNKVKFTEEHAIEVTNWKYEGKYSIYNLPPWEEIKKKNFSLAKEDKRKNFISFINDNKELIGFINLLDEGSSVFFGIGMKPNYCGMGIGKEIISLRLQECRNKYSTKPIVLNVRTWNMRAVKCYESQGFKIVETKVQKTH | not soluble |
| NMRQVLKTDRLVLEPQSMARFDQWFAMERQRDEAGHRDLTEDQAWLRLCARQGMWDAYACGFYYLLDPVSGEMRGEAGFQFRRRGFGPGFDNHPEAAWAVASAHQGRGLAAEAMQALLAHHDRSSGRQRVVALIARSNLPSLRLAERLG | not soluble |
| NNDSWKPWSLPLSGKIIYLDPGHGGPDGGAVGGKLLEKDVTLEVAFRVRDYLQEQGALVIMTRESDTDLAPEGTKGYSRRKAEDLRQRVKLINHSEAELYISIHLNAIPSQKWSGAQSFYYGKYAENEKVAKYIQDELRRNLENTTRKAKRIHGIYLMQNVTKPGALIEVGFLSNPSEATLLGKPKYQDKVASSIYKGILRYFTEKGDPPE | not soluble |
| NNPVSETITRKHVDKDQIRAFGVVAEDNAQLEKGSLVMMGGKYWFVVNPEDSAKLTGILKAGLDKPFQIVEDTPSYARHQALPVKLESPGSQNFSTEGLCLRYDTDKPADIAKLKQLGFEAVKLDNRTIYTRCVSAKGKYYATPQKLNADYHFEQSVPADIYYTVTEEHTDKSKLFANILYTPP | not soluble |
| NPNPISIPIDLSQAGSVVEKEVKIEESWSYHLILQFAVHDRKEDGGLDGKRVWKFLGFNSYDPRDGKQVGYVDYRLAKSELGDLIDETYDCDGTVVPIKITIHQINQDNTKKLIADNLYMTKGNGSGAYTRDITTISLDKGKYIFRIENIEAFSEMIGRKVDFTIYINKRDK | soluble |
| NPTEQLLTRFNQAAQGDTGLVDTVHDELSQLVQKQGATPVTLVYLGSSETLQGRDAFMPWNKMKFTERGLATIQKGLDLMANQPMPIQEQQRLQGLPEYQ | not soluble |
| NRLLSKYDPQKEAELRTWIEGLTGLSIGPDFQKGLKDGTILCTLMNKLQPGSVPKINRSMQNWHQLENLSNFIKAMVSYGMNPVDLFEANDLFESGNMTQVQVSLLALAGKAKTKGLQSGVDIGVKYSEKQER | soluble |
| NRMKLMIVGNTGSGKTTLLQQLMKTKKSDLGMQSATVGIDVKDWPIQIRDKRKRDLVLNVWDFAGREEFYSTHPHFMTQRALYLAVYDLSKGQAEVDAMKPWLFNIKARASSSPVILVGTHLDVSDEKQRKACMSKITKELLNKRGFPAIRDYHFVNATEESDALAKLRKTIINESLNFKIRDQ | soluble |
| NRSLNELSLSDILIAADVEGGLHAVDRRNGHIIWSIEPENFQPLIEIQEPSRLETYETLIIEPFGDGNIYYFNAHQGLQKLPLSIRQLVSTSPLHLKTNIVVNDSGKIVEDEKVYTGSMRTIMYTINMLNGEIISAFGPGSKNGYFGSQSVDCSPEEKIKLQECENMIVIGKTIFELGIHSYDGASYNVTYSTWQQNVLDVPLALQNTFSKDGMCIAPFRDKSLLASDLDFRIARWVSPTFPGIIVGLFDVFNDLRTNENILVPHPFNPGDHESISSNKVYLDQTSNLSWFALSSQNFPSLVESAPISRYASSDRWRVSSIFEDETLFKNAIMGVHQIY | soluble |
| NTDYYGLDYALSFNQVEIEEKRIVIAGSGGIARTVIRYMLDHGAHRVDVLTRNAQNARRNLDIPGIGLHENIDEDYDIYVNCTPLGTLGDGDPFSTVDFRSGRTGIDLVYNPPDTPFLKRMRNAGGRTVSGLDVFIGQGLRTLELVFGIRPDSIFREYAVEALNEIR | not soluble |
| NTGFDINGMVSKIVSAERVPKQQRIDNERTNIDTSISAYGRLRESLDTMKNLMTQFRQEKAFAVRKVDTSNEQVVSATATTEAIAGNYSVDVLQLAQ | not soluble |
| NTQITIKMEPDTQALEEVVVIGYGAVKKRDLTGAVSSVKNEDITLTPATNPMQALQGRVAGLDITQASGQPGEGPKLQLRGTRSFTASGDPMFIIDGMPGDYSTLNPNDIESIEVLKDASSTAVYGAAGANGVIIITTKSGKAGK | not soluble |
| NVAYPLGEGLLSFAESLESQKIHFTTEVITSRIEPANRYVAEKLRITPGQDILYLERLRSIGDEKAMLIENRINIELCPGIVEIDFNQHNLFPTIESLSKRKIRYSESRYAARLIGNERGHFLDISEDAPVLHLEQLVFFSRELPVEFGNVWLKGNKYYLGTVLQRRELS | soluble |
| PAGHADDAMHSYFTFVAPDRGLAKVAAAQAAALRPFLAGTPLADLPLLSSVSPLKAGGRAGPDHYTDVPAGPLSMRHVADLHMFPNELRALVLTGADLREWLEMAAGVFLSPAPAGACDMLLDTSVPGHNFDSLYGLTYEIDPRAPPRYDIGGRLIADENRRIGSLCHNGTPVDDRQKFVVALNNYRANGGGHFLMLDRGEPVPLPSLRIQSALHDYLSGRLPADPLEQAPHPWRLAPL | not soluble |
| PDTSHYALLSNRIVNAVKQYRSQRALEASKDRLSLFIDQSPLGFVEYNQDFEIVRVNETLTEIFGYTETELLGETWETFVSSESYDDVDAVTSALSEASGGYHSVNENVRKDGERIVVEWHNRLVTDDS | not soluble |
| PEPAQQQAPVEKPKKKAKLEVIGDDVVSIMVSLRWLEFLLDNYGPENTLDVLDYYESLGWISATVKEQMMKYAKMTGVMNPAQEYKIKPSIQDHIINMLFIEKLRGEEINRDLIEALEREFRTIRKGVDELYGI | not soluble |
| PEPGKKPVSAFSKKPRSVEVAAGSPAVFEAETERAGVKVRWQRGGSDISASNKYGLATEGTRHTLTVREVGPADQGSYAVIAGSSKVKFDLKVIE | soluble |
| PEWDEYIAEQIESGALGEDEGAEFLERWMVQKQHPLDINTLTREDLEQFPFLNEFQIRRFLLYRHAHPEGFDSIWVLSEIAGWDRRTCLLLWPMLTVQKRSESAAASFREILSYARHDVSVHTDAILQQQEGYRPDSRHPYRGDPWGGGLRWSYAMGNRFSLGLTASKDRGEPAFDKRRKGFDSYSAHFFMEGKGAVRAVALGDYRIG | not soluble |
